Biological target: T1, 金黄色葡萄球菌B型肠毒素(SEB)抗原 (Staphylococcus aureus enterotoxin B) (Staphylococcus aureus, UniProt P01552 28-266)
T1 sequence: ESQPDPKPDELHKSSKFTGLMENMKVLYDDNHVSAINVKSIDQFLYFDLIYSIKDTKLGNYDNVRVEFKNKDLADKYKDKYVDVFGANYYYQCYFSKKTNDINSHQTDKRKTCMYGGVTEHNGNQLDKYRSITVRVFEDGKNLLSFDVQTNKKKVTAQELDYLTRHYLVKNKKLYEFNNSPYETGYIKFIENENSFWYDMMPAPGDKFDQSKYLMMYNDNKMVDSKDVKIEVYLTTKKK
Assay: monoclonal phage ELISA on coated SEB antigen, anti-M13-HRP, OD450

B1: 抗肠毒素的纳米抗体 (anti-SEB nanobody, heavy chain variable region SEQ ID NO: 8) (VHH)
VHH: QVQLVESGGGSVQAGASLTLSCVVSVRTDSYAMGWMRQAPGKEREVIAGVSWSGQSTTYADSVKGRFTISRDNAKRAVYLQMGNLKPEDTAVYYCAMGRAPFYIGLTSEPEAYESWGQGTQVTVSL
binding result: binds

Source: patent CN113416248A (INST MILITARY MEDICINE ACADEMY MILITARY SCIENCES PLA, dated 2021)
